Measurements published in PMC3538135.

Biological target: CD4 (recombinant CD4 antigen) (UniProt P01730 26-396)
Experiment: ellipsometry

B1: IFN-gamma aptamer (nonsense control) (ssDNA)
DNA: GGGGTTGGTTGTGTTGGGTGTTGTGTCCAACCCCC
modifications: 5' thiol-C6
Q: Does B1 bind?
A: no binding
